Laboratory results from PMC7614924.

Target: 0N4R isoform of human tau bearing P301S with a C-terminal Venus tag (Sarkosyl-insoluble filaments from seeded HEK293 cells) (human)

Substance “Recombinant N-terminally 6xHis-tagged human P301S 0N4R tau (heparin-assembled fibrils) (natural protein)” has a percent of HEK293 P301S tau-Venus cells with aggregates (Venus fluorescence) 24 h after 100 nM recombinant tau fibrils with lipofectamine of 20%.
